From the supplement of paper PMC12764529
± gives the half width of the 95% confidence interval.

How the values were obtained:
[1] = folding stability dG unfold from chymotrypsin proteolysis; higher = more stable
Outline: (§1)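 Unfolding free energy was derived, per protease or combined, by relating Bayesian-fitted K50 values from sequencing counts to a sequence-predicted unfolded-state K50 and a shared folded-state K50. The underlying digests exposed cysteine-free mini-proteins under 80 residues, in a PA-tagged cDNA display construct, to trypsin and chymotrypsin at 11 threefold-diluted concentrations and to a no-protease condition. A filter kept only designs with AlphaFold2 dimer inter-PAE above 15.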

[2] = folding stability dG unfold (combined trypsin and chymotrypsin); higher = more stable
Outline: as §1

[3] = folding stability dG unfold from trypsin proteolysis; higher = more stable
Outline: as §1

Row | Sequence | folding stability dG unfold [1] [kcal/mol] | folding stability dG unfold [2] [kcal/mol] | folding stability dG unfold [3] [kcal/mol]
1 | SAGITITVPPGKPYYVHITMYMFDPNGKLMGPQTIMFPIRVPPDDTIEIPIPFDSPNIRITDISIMPKSAGG [r19_295_TrROS] | 2.54 ± 0.094 | 2.4 ± 0.16 | 1.98 ± 0.058
2 | SMTVTTDPSSLTFTLPPTYTSVEQAREALEELGFKLPSSVKSITIESVDEGKNLNTITVTFDDPEALKKLSA [r9_820_JUSTAS] | 0.922 ± 0.089 | 0.913 ± 0.082 | 0.74 ± 0.03
3 | SAGGSAGGSETVTLTLVVDSPEEAKALIDALKKAGIKEVTLEEKDGKLVLTITMSKEELEKLKSAGGSAGGS [r12_846_TrROS_Hall] | 3.8 ± 0.13 | 3.41 ± 0.2 | 2.31 ± 0.23
4 | SAGGSAGGSAGGSMLVRFPDKDVLSDGSEAEAERLAEELAAAGRPVELEFISPEEAAARSAGGSAGGSAGGS [r4_131_JUSTAS] | -0.83 ± 0.32 | -0.424 ± 0.31 | -0.225 ± 0.21
5 | SAGGDKDNKPPIPTKTITFMLPYDSPEDAKDYAEEIARELFQEEGIPIKVTVQYNPESGWVWVTITIYSAGG [r13_517_TrROS] | 4.57 ± 0.075 | 4.32 ± 0.12 | 3.49 ± 0.1
6 | SAGGSAGGSAGIKIEWEQMPGGYMQYKVTIPDPNGKPLKIDVHYKSPEDAEEKAKELLKSSAGGSAGGSAGG [r11_819_TrROS] | 0.386 ± 0.26 | 0.333 ± 0.2 | 0.215 ± 0.089
7 | SAMKTVTIKVTVEVTKNENGEEVKTVTVTLTLPEEEMTEEQLKELAKELADKLAEENNLTVKITKIEVTSAG [r14_190_TrROS_Hall] | 2.93 ± 0.1 | 3.08 ± 0.06 | 3.27 ± 0.19
8 | SAGGSAGGSAKWIYIMLPFPEGQKVEIEYPNGRKHSYEQTPDGMLMIRVRRPNAPIKIKIKSAGGSAGGSAG [r3_334_TrROS] | 2.72 ± 0.23 | 2.4 ± 0.25 | 1.9 ± 0.13
9 | SAGGSAGGKIAVIPYVPEEDIPPELRELFGKEGSLSPEEFQELFAEAVARELGEEGAIDAVIVESAGGSAGG [r6_654_TrMRF] | 0.721 ± 0.037 | 0.778 ± 0.15 | 0.618 ± 0.032
10 | SAGSMSSVKKVKITTTSYDPTNGAKKETSYDVTVTTTTYPATGEITRTIYFTSTGKWKVEHLPPGAPLASAG [r14_587_JUSTAS] | 2.15 ± 0.12 | 1.97 ± 0.14 | 1.48 ± 0.066
11 | SPIRIRIWNPKNNVPIDEIDIQPNEDGNYGIKIKFWMPGKQHEHTIPIPPGETADEFINDHGIRSIEIEPSA [r9_492_TrROS] | 1.01 ± 0.11 | 0.7 ± 0.086 | 0.13 ± 0.085
12 | SAGGSAGGSKKKKKKKKKIKVLIRNKKTGKWFEAEAEVVDGELYIKVNGKIYKIKGPVEIELVSAGGSAGGS [r12_683_TrROS_Hall] | 3.686 ± 0.019 | 3.3 ± 0.048 | 2.38 ± 0.043
13 | SAGGMKIEITVSPVGDVVNVEVKIELPEGPVEVVDETPAEVAPDGSIHIKLKLKLPNGPWLEMEIEVSAGGS [r8_449_JUSTAS] | 3.97 ± 0.15 | 3.87 ± 0.33 | 2.91 ± 0.24
14 | SAGGSAGGGMNATPKKIKVTITITDPSGNKTTVTREFDSEEEAEKFVKELLPPNRSYTVTYEPESAGGSAGG [r6_290_JUSTAS] | 2.075 ± 0.017 | 2.56 ± 0.068 | 2.94 ± 0.074
15 | SAGMDPSDPNSITTLTTEVEPLPDGSTRVTTYTKLPDGTIVKNVTTLDPAGNVLTTTTTPIPPEALNASAGG [r19_285_JUSTAS] | 3.85 ± 0.06 | 3.75 ± 0.096 | 3.56 ± 0.17
16 | SAGGSAGGSAGKKELTFKDKNGKTITVTLEDGEIKEIKIEKPPKPKVVKTEKKYVPKEELSAGGSAGGSAGG [r17_287_TrROS_Hall] | 0.0761 ± 0.069 | 0.135 ± 0.4 | 0.0355 ± 0.16
17 | SMTIEGMSPREAVRNIIEEFIEMFEANGNPPMPIKIRFPGNGKPIYEFPIQSKEQLLDQIENGVPVSIEFSA [r9_718_TrROS] | -0.498 ± 0.18 | 0.183 ± 0.1 | 0.604 ± 0.027
18 | SAGGSAGGSAGGMVKIKLKNGKWYEAKVTEIDEDGNVVVELPNGKKFTVPAKDLEIEVLPSAGGSAGGSAGG [r7_823_TrROS_Hall] | 3.7 ± 0.097 | 3.69 ± 0.11 | 3.77 ± 0.29
19 | SAGGKPRILLRRETAPDGRPYYVLQVLRRDPSDDGWTPVLEHRFETPEEAERYARELAEKTGYELVGSAGGS [r16_512_TrMRF] | 4.9 ± 0.11 | 4.72 ± 0.075 | 4 ± 0.11
20 | SAGGSAGGSAKKKILVKKPDGRLLLIEIDKDKPNTVRIYDIDTGKKIELSVEDLKKLKIKKSAGGSAGGSAG [r3_451_TrROS_Hall] | 2.35 ± 0.052 | 2.08 ± 0.052 | 1.57 ± 0.034
21 | SMVVLPVRYPDLSPEEARAAVEALAAEIEAAVGAEVRVEVEVERAPDGTPVRVLVTATVVIRTAADALLLSA [r9_21_JUSTAS] | 1.16 ± 0.068 | 1.09 ± 0.12 | 0.946 ± 0.061
